For the data set the following is noted: ubiquitination at K571.

The source of these data is PMC6537586.

For the substance ELL2: K571R, the degradation_or_half_life entry is “no change, half-life less than 6 h”.
